Results reported in patent US20170035898A1, “CONJUGATES OF AN IL-15 MOIETY AND A POLYMER” (Nektar Therapeutics, priority 2014, published 2017).

Key:
[1] = target: IL-15-Rα-Fc; assay: SPR (Biacore), IL-15Rα-Fc captured by anti-human Fc antibody, Kd from kd/ka
[2] = target: IL-15-Rα-Fc; assay: SPR (Biacore), IL-15Rα-Fc captured by anti-human Fc antibody, test article injected
[3] = tested on: STAT5 phosphorylation in CTLL-2 cells; assay: Measurement of IL-15 activity of rIL-15 based on STAT5 phosphorylation in CTLL-2 cells (Example 1); format: cell-based
Source text: For any given peptide, protein moiety or conjugate, it is possible to determine whether that peptide, protein moiety or conjugate has IL-15 activity. Various methods for determining in vitro IL-15 activity are described in the art. An exemplary approach is based on a pSTAT assay. Briefly, if an IL-15-dependent CTLL-2 cell is exposed to a test article having IL-15 activity, initiation of a signaling cascade results that includes the phosphorylation of STAT5 at tyrosine residue 694 (Tyr694) that can be quantitatively measured.
One day prior to assay, CTLL-2 cells were split into fresh growth medium (RPMI 1640+10% FBS+10% T-STIM+2 mM L-glut+1 mM Na-pyruvate). On the day of assay, cells were pre-incubated in assay medium (RPMI 1640+1% FBS+2 mM L-glut+1 mM Na-pyruvate) for at least 4 hours and then placed in a 96-well plate at 50,000 cells/well in the assay medium.
Dilutions of the test article were prepared in an appropriate buffer immediately prior to assay and each dilution of test article was incubated in a separate well of the CTLL-2 cells. The phosphorylation of STAT5 was then determined using the MSD Phospho (Tyr694)/Total STATa,b Whole Cell Lysate Kit (catalog #K15163D, […], LLC, Gaithersburg, Md.).

[4] = tested on: STAT5 phosphorylation in CTLL-2 cells; assay: Measurement of IL-15 activity of rIL-15 conjugates based on STAT5 phosphorylation in CTLL-2 cells (Example 8); format: cell-based; conditions: 10 minute treatment
Description: One day prior to the assay, CTLL-2 cells were split into fresh growth medium [RPMI 1640 supplemented with 10% FBS, 10% T-cell culture supplement (catalog #354115, Corning, Inc., Tewksbury, Mass.), 2 mM L-glutamate, and 1 mM sodium pyruvate]. On the day of assay, cells were pre-incubated in assay medium (RPMI 1640 supplemented with 1% FBS, 2 mM L-glutamate, and 1 mM sodium pyruvate) for at least four hours, and then plated in assay medium in a 96-well plate at 50,000 cells/well. Dilutions of the test article were prepared in an appropriate buffer immediately prior to assay. Stimulation of CTLL-2 cells was initiated by the transfer of 25× test article solutions to triplicate wells containing CTLL-2 cells. Plates were incubated at 37° C., 5% CO2 for 10 minutes, and the reaction was stopped by cell lysis. Detection of phospho-STAT5 and total STAT5 protein levels in cell lysates was performed using the MSD Phospho (Tyr694)/Total STATa,b Whole Cell Lysate Kit (catalog #K15163D, Meso Scale Diagnostics, LLC, Gaithersburg, Md.). […] Conjugates prepared in accordance with Examples 2, 3 and 5 were tested, with the results following a 10 minute treatment provided in Table 4.

[5] = tested on: B16F10 melanoma tumor; assay: Antitumor activity of rIL-15 conjugates in B16F10 melanoma tumor (Example 9); format: in vivo, C57BL/6 mice; conditions: conjugates 0.6 mg/kg i.v. once, IL-15 0.3 mg/kg i.p. every other day x6
Description: To test and compare the efficacy of rIL-15 conjugates in an in vivo model, syngenic tumors were induced in 6-8 week old female C57BL/6 mice by subcutaneously injecting, into post ventral abdominal region, mouse metastatic B16F10 melanoma cells at a density of 1×10^6 cells mL-1 in 100 μL volume of non-serum containing cell culture medium. The mice developed tumors of approximately 100 mm^3 by the end of 6-8 days. The mice were divided into six groups, each group consisting of 10 animals.
Groups A through D correspond to rIL-15 conjugates that were administered at 0.6 mg/kg body weight by intravenous injection to the mice only once while Group E represents unconjugated IL-15 administered every other day via intraperitoneal injection. Group F represents a vehicle control, wherein phosphate buffered saline was administered by intravenous injection.
Following dose administration, the mice were measured for changes in body weight and for the growth of subcutaneous metastatic melanoma tumors by digital calipers three times a week. Daily clinical signs were also monitored. The study end point was reached when the mean volume of the tumors reach 1500 mm^3 (i.e., a mean tumor volume of 1500 mm^3).

[6] = tested on: IL-15Rα; assay: Receptor affinities for IL-15Rα by Surface Plasmon Resonance (Example 10); format: binding; conditions: SPR
Description: The affinities of IL-15 and rIL-15 conjugates were measured using Surface Plasmon Resonance (“SPR”). Briefly, the surface of a Biacore CMS sensor chip was activated using a 1:1 mixture of NHS:EDC to generate active NHS esters. Goat anti-human Fc antibody was covalently attached to the surface by injecting it for five minutes in 10 mM sodium acetate (pH 4). There were approximately 8000 RU of antibodies bound to the surface. Any remaining NHS ester was then quenched with ethanolamine
At the initiation of each injection cycle, IL-15-Rα-Fc was captured on a sensor chip channel by a five minute injection step in PBSP. Typically, 150-200 RU of receptors were bound on the surface.
rIL-15 conjugates were diluted to 10 μM in PBS (containing 0.05% Tween 20 and 0.1 mg/ml BSA). A series of 3-fold dilutions were made and injected onto a sensor chip which was coated with IL-15Rα. The affinities were measured by determining the ka and kd rates separately, and the ratio between kd and ka was used to calculate the Kd values.

[7] = days from the day of implantation
[8] = IL-15-Rα-Fc captured on sensor chip

Fraction containing di- and tri-PEG-rIL-15 from Example 2 ([mPEG2-ru-20K]-[rIL-15] conjugates) (from UniProt P40933 49-162) (ligand)
Kd [1]: 0.183 nM | koff [2]: 0.00049 s⁻¹ | kon [2]: 2.6e+06 M⁻¹ s⁻¹

Fraction containing di- and tri-PEG-rIL-15 from Example 5 ([mPEG2-ru-40K]-[rIL-15] conjugates) (from UniProt P40933 49-162) (ligand)
Kd [1]: 1.9 nM | koff [2]: 0.00088 s⁻¹ | kon [2]: 460000 M⁻¹ s⁻¹

Fraction containing mono-PEG-rIL-15 from Example 2 ([mPEG2-ru-20K]-[rIL-15] conjugates) (from UniProt P40933 49-162) (ligand)
Kd [1]: 0.043 nM

Fraction containing mono-PEG-rIL-15 from Example 5 ([mPEG2-ru-40K]-[rIL-15] conjugates) (from UniProt P40933 49-162) (ligand)
Kd [1]: 3.56 nM | koff [2]: 0.00047 s⁻¹ | kon [2]: 130000 M⁻¹ s⁻¹

Fraction containing tri-PEG-rIL-15 from Example 5 ([mPEG2-ru-40K]-[rIL-15] conjugates) (from UniProt P40933 49-162) (ligand)
Kd [1]: 9.4 nM | koff [2]: 0.0039 s⁻¹ | kon [2]: 420000 M⁻¹ s⁻¹

IL-15: recombinant human IL-15 obtained from PeproTech (catalog #200-15); unconjugated control
average pSTAT5 EC50 ([3]; at 5 minutes, average over two runs): 0.2071 ng/mL | pSTAT5 EC50 ([3]; at 10 minutes): 0.08187 ng/mL | EC50 (ng/mL) Ave ± SD [4]: 0.063 ± 0.028 ng/mL | Tumor Volume Doubling Time (500 mm^3) [5]: 2.9 days | Tumor Volume Doubling Time (1000 mm^3) [5]: 5.6 days | Time to reach 250 mm^3 [5, 7]: 10.6 days | Time to reach 500 mm^3 [5, 7]: 13.5 days | Time to reach 1000 mm^3 [5, 7]: 19.1 days | Tumor growth delay for 250 mm^3 ([5]; versus vehicle control Group F): 0.6 days | Tumor growth delay for 500 mm^3 ([5]; versus vehicle control Group F): 0.9 days | Tumor growth delay for 1000 mm^3 ([5]; versus vehicle control Group F): 4 days | ka [6, 8]: 7.5e+06 M⁻¹ s⁻¹ | kd [6, 8]: 0.00028 s⁻¹ | Kd ([6]; read-out: affinity (Kd)): 3.8 pM

recombinant IL-15 (unconjugated) (from UniProt P40933 49-162) (ligand)
Kd [1]: 0.0038 nM
